# According to US20190359683A1:
# Target: recombinant human cardiotrophin-like cytokine factor 1 (CLCF1) (human) (UniProt Q9UBD9)
# Test: yeast display binding
# Chain of recombinant human cardiotrophin-like cytokine factor 1 (CLCF1) (human) (Q9UBD9 28-225): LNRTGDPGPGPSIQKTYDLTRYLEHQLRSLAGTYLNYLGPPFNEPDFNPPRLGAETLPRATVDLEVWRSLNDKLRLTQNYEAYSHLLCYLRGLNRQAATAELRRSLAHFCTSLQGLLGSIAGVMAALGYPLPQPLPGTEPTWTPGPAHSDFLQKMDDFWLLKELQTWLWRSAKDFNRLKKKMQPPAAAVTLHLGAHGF
substance,measurement,value
yeast-displayed eCNTFR (variant 4 with Y177H and K178N) (from UniProt P26992 20-342),Kd,0.014 nM
